Residue numbers refer to the chain shown, from its start. Where “and” joins values, the source holds several entries; their conditions need not be identical. Identical values can stand only once. Values belong to the molecule of their own block, whether it stands above or below them. Non-standard residues stand in square brackets, D forms with d. No end group written: not given here. pS = N[C@@H](COP(=O)(O)O)C(=O)O
Tests used:
[1] = target: Transportin 3 (TNPO3), full-length wild type (human) (UniProt Q9Y5L0); assay: ITC; 100 µM ligand in the syringe injected (28 x 10 µL) into 10 µM TNPO3 (WT or C511A) in the cell; 25 °C; 50 mM Tris-HCl pH 7.5, 150 mM NaCl, 2 mM TCEP, 0.04% NaN3
[2] = target: SRSF1 RS-NLS (Homo sapiens) (UniProt Q07955); assay: FP; details: cited from earlier work
SRSF1 RS-NLS (Homo sapiens), sequence (Q07955 198-227): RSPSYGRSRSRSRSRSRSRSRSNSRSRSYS

[3] = target: CPSF6 RS-NLS (Homo sapiens) (UniProt Q16630); assay: FP; details: cited from earlier work
CPSF6 RS-NLS (Homo sapiens), sequence (Q16630 490-551): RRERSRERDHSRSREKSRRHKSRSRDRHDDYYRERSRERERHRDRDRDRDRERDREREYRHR

[4] = tested on: TNPO3; assay: NMR binding studies with TNPO3 (1H-15N HSQC, 1H-13C HMQC, 1H 1D, STD); set-up: species or system human; details: pH 6.7
Experimental: All NMR studies for TNPO3 were carried out using the wild type protein. Protein samples for ^1H-^13C HMQC were prepared at a concentration of 100 μM and equilibrated in a buffer containing 50 mM Tris–HCl, pH 6.7, 150 mM NaCl, 2 mM TCEP and 10% D2O. Spectral acquisitions for TNPO3 free and in complex with CIRBP^RSY and SRSF1^RS, respectively were performed at 298 K on a 700 MHz Bruker Avance III NMR spectrometer equipped with a TCI triple-resonance cryoprobe. The pulse program was sfhmqcf2gpph and the spectra were recorded with 32 scans, interscan delay of 1 s, 160 points in F1, 1024 points in F2, 5283.879 Hz spectral width in F1, and 11,160.714 Hz spectral width in F2. Spectra were processed using Topspin 4.1.3.
Spectral acquisitions for TNPO3 free and in complex with mCIRBP^RSY, pCIRBP^RSY, and pSRSF1^RS, respectively, were performed at 298 K on a 600 MHz Bruker Avance Neo NMR spectrometer equipped with a TXI 600S3 probehead. The pulse program was hmqcgpphwg and the spectra were recorded with 64 scans, interscan delay of 1 s, 200 points in F1, 1024 points in F2, 4545.455 Hz spectral width in F1, and 7812.500 Hz spectral width in F2. Spectra were processed using Topspin 4.3.0.
For ^1H-^15N HSQC spectra, protein samples were equilibrated in a buffer containing 50 mM Tris–HCl, pH 6.7, 150 mM NaCl, 2 mM TCEP, 0.04% NaN3, and 10% D2O (with additional 20 mM MgCl2 for CIRBP phosphorylation kinetics). Data were recorded at 298 K on the 600 MHz Bruker Avance Neo NMR spectrometer equipped with a TXI 600S3 probehead. The pulse program was hsqcetfpf3gpsi and was recorded with 8-16 scans, interscan delay of 1 s, 128 points in F1, 1024 points in F2, 1949.318 Hz spectral width in F1, and 9615.385 Hz spectral width in F2. Spectra were processed using Topspin 4.3.0.

[5] = target: T1, TNPO3 WT (Homo sapiens, UniProt Q9Y5L0); assay: ITC, ligand titrated into TNPO3 WT; assay type: binding; details: ITC, 100 µM ligand into 10 µM TNPO3 WT, 28 injections of 10 µL, 25 °C, 50 mM Tris–HCl, 150 mM NaCl, 2 mM TCEP, 0.04% NaN3, pH 7.5; error = SD of the fit
T1 sequence (Q9Y5L0 1-923): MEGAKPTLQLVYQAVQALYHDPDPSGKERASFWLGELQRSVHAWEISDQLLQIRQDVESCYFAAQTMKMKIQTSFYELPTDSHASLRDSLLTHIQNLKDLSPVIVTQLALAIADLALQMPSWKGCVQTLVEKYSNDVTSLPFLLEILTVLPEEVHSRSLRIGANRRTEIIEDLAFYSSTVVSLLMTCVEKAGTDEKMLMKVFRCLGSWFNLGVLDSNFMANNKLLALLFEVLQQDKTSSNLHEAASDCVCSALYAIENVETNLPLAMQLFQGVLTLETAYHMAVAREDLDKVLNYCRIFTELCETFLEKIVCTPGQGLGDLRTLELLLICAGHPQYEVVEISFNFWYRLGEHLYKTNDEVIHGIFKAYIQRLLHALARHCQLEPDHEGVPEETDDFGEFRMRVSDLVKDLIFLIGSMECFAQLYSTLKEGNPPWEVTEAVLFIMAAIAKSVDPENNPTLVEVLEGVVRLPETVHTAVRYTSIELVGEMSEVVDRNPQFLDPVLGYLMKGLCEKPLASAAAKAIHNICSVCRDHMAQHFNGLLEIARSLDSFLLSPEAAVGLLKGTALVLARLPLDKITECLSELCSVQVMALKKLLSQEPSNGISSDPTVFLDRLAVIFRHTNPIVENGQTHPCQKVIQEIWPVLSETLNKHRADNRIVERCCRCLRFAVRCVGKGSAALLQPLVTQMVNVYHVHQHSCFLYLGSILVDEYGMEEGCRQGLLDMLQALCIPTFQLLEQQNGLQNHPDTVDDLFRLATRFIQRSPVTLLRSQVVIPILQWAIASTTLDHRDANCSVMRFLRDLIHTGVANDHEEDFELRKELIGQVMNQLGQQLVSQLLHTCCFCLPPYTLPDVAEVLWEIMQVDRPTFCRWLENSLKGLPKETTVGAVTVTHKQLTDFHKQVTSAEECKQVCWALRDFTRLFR
Experimental: ITC has been performed by a Malvern Microcal VP-ITC at 25 °C for all binding studies. Samples have been dissolved in Tris buffer containing 50 mM Tris–HCl, 150 mM NaCl, 2 mM TCEP, and 0.04% NaN3 at pH 7.5. Binding studies of CIRBP^RSY and SRSF1^RS were performed with TNPO3 WT, and studies of CIRBP (157–172) and its mutants/phosphorylations were performed with TNPO3 C511A, respectively. Injection has been carried out by a syringe containing ligand solution of 100 μM, which adds ligand step-wise into the cell containing 10 μM TNPO3 during 28 injections of 10 μL each. Data analysis, curve fitting, and calculation of Kd, ΔH, and ΔS have been carried out using Origin-based 7.0 software provided by the manufacturer. All replicated ITC data are shown in Supplementary Fig. 6 and Supplementary Table 1.

[6] = target: T2, Transportin 3 (TNPO3), full-length wild type (human, UniProt Q9Y5L0 1-923); assay: NMR titration; 1H NMR spectra of 50 µM peptide free and with a stoichiometric amount (50 µM) of TNPO3 WT; line broadening of peptide signals; details: both partners purified
T2 construct: Transportin 3 (TNPO3), human, full-length wild type; For the NMR experiments made 15N-labelled with 13C-methyl labelling of isoleucine and methionine side chains ([IM-methyl 13C]); Vector pETM11-His6-protein A with a TEV site downstream of the protein A tag; also called TNPO3 WT; TNPO3 FL WT; source: E. coli BL21-(DE3) Star, purified (Ni-NTA, TEV cleavage, second Ni-NTA, SEC Superdex 200); not …
T2 sequence (looked up): T1 sequence (Q9Y5L0 1-923)

[7] = target: T3, Transportin 3 (TNPO3), full-length wild type (human, UniProt Q9Y5L0 1-923); assay: ITC; phosphorylated
T3 chain: T1 sequence (Q9Y5L0 1-923)

[8] = target: T3, Transportin 3 (TNPO3), full-length wild …; assay: ITC; phosphorylated, rep2
[9] = target: T2, Transportin 3 (TNPO3), full-length wild …; assay: ITC; 100 µM ligand in the syringe injected (28 x 10 µL) into 10 µM TNPO3 (WT or C511A) in the cell; 25 °C; 50 mM Tris-HCl pH 7.5, 150 mM NaCl, 2 mM TCEP, 0.04% NaN3; details: both partners purified
[10] = target: T4, Transportin 3 (TNPO3) C511A mutant (human, UniProt Q9Y5L0 1-923, C511A); assay: ITC; rep2
T4 sequence: T1 sequence (Q9Y5L0 1-923) with C511A

[11] = target: T4, Transportin 3 (TNPO3) C511A mutant; assay: ITC
[12] = target: Transportin 3 (TNPO3) C511A mutant (human) (UniProt Q9Y5L0); assay: ITC; 100 µM ligand in the syringe injected (28 x 10 µL) into 10 µM TNPO3 (WT or C511A) in the cell; 25 °C; 50 mM Tris-HCl pH 7.5, 150 mM NaCl, 2 mM TCEP, 0.04% NaN3
Transportin 3 (TNPO3) C511A mutant (human), sequence (Q9Y5L0 whole entry C511A): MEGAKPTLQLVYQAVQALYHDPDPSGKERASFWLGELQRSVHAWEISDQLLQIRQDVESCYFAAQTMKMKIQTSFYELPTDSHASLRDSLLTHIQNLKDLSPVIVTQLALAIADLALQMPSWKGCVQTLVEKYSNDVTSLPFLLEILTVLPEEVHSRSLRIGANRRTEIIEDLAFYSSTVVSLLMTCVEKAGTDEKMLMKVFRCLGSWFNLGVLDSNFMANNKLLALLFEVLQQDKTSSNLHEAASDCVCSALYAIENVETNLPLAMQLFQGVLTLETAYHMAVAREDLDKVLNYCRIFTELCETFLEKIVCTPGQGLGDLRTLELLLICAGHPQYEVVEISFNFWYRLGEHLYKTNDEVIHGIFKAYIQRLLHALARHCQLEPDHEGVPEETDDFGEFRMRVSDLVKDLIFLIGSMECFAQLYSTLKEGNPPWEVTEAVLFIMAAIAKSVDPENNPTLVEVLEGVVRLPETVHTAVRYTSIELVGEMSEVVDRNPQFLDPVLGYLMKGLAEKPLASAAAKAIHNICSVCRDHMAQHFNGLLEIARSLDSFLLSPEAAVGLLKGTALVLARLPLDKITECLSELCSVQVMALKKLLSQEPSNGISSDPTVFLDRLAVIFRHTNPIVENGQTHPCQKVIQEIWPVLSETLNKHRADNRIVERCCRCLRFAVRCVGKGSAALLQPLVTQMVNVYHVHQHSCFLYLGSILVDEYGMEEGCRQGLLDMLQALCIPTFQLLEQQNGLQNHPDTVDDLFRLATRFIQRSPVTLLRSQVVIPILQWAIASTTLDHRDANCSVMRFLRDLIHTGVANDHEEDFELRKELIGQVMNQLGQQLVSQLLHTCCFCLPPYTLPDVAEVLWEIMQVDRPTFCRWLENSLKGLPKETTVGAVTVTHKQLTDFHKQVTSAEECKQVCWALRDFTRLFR

[13] = target: T4, Transportin 3 (TNPO3) C511A mutant; assay: ITC; remark: listed apart in the source
[14] = target: T3, Transportin 3 (TNPO3), full-length wild …; assay: ITC; rep2
[15] = target: T5, Transportin 3 (TNPO3) C511A mutant (human, UniProt Q9Y5L0 1-923, C511A); assay: ITC; 100 µM ligand in the syringe injected (28 x 10 µL) into 10 µM TNPO3 (WT or C511A) in the cell; 25 °C; 50 mM Tris-HCl pH 7.5, 150 mM NaCl, 2 mM TCEP, 0.04% NaN3; details: both partners purified
T5 construct: Transportin 3 (TNPO3), human, C511A mutant that increases stability; Two chains in the asymmetric unit of 8CMK; source: E. coli BL21-(DE3) Star, purified (Ni-NTA, TEV cleavage, second Ni-NTA, SEC Superdex 200)
T5 sequence: T1 sequence (Q9Y5L0 1-923) with C511A

[16] = target: T3, Transportin 3 (TNPO3), full-length wild …; assay: ITC

Molecule: SR/RS-NLS of SRSF1, residues 195-211, phosphorylated in vitro by SRPK1 (from UniProt Q07955 195-211) (domain or fragment)
Kd [1]: 2420 nM

Molecule: TNPO3 (from UniProt Q9Y5L0)
Kd [2]: 1300 nM
Kd [3]: 3.4 µM

B4: CIRBP (157-172) synthetic peptide, wild type (peptide)
peptide: GGSYRDSYDSYATHNE
notes: also called mCIRBP^RSY; source: synthetic peptide (Peptide Specialty Laboratories GmbH)
Kd [10]: 6.2 µM
Kd [11]: 1180 nM
binding result [6]: binds
Kd [12]: 5.78 µM
Kd [13]: 6.2 µM and 4.24 µM

B6: RBM39 (86-101) synthetic peptide (peptide, UniProt Q14498 86-101, looked up)
peptide: SRDRRFRGRYRSPYSG
notes: also called RBM39^RSY (86–101); source: synthetic peptide (Peptide Specialty Laboratories GmbH)
binding result [6]: binds

The remaining lines, values ahead:

spectral changes of 15N-labeled cargo upon addition of TNPO3 (1H,15N HSQC) ([4]; 60 µM cargo, one stoichiometric equivalent of TNPO3, 298 K): weak binding
chemical shift perturbations of TNPO3 methyl groups upon ligand addition (1H,13C HMQC) ([4]; 100 µM [IM-methyl 13C] labeled TNPO3, one stoichiometric equivalent of ligand, 298 K): no binding was observed
Kd of binding to TNPO3 (ITC), as given in text and figures [5]: no binding was detectable
Molecule: DGPRSPSYGRSRSRSRS [SRSF1^RS, recombinant canonical SR/RS-NLS of human SRSF1 (195-211), unphosphorylated, reference compound]

binding result [6]: binds
B1: RBMX (276-291) synthetic peptide (peptide, UniProt P38159 276-291, looked up)
peptide: PSGGSYRDSYESYGNS
notes: also called RBMX^RSY (276–291); source: synthetic peptide (Peptide Specialty Laboratories GmbH)

binding result [6]: binds
B2: P5CS (3-20) synthetic peptide (peptide, UniProt P54886 3-20, looked up)
peptide: SQVYRCGFQPFNQHLLPW
notes: Delta-1-pyrroline-5-carboxylate synthase (P5CS), human, residues 3-20; also called P5CS^RSY (3–20); delta-1-pyrroline-5-carboxylate synthase; source: synthetic peptide (Peptide Specialty Laboratories GmbH)

Kd [7]: 2540 nM
Kd [8]: 2540 nM
Kd [9]: 5.99 µM
B3: Phosphorylated RSY region of CIRBP (138-172), phosphorylated in vitro by SRPK1 (domain or fragment, human, UniProt Q14011 138-172, looked up)
chain: SRDYYSSR[pS]Q[pS]GGY[pS]DRSSGGSYRDSYDSYATHNE
notes: also called pCIRBP^RSY; phosphorylated CIRBP^RSY; source: E. coli BL21-(DE3) Star, purified; phosphorylated in vitro with recombinant SRPK1 and ATP overnight, isolated by SEC (Superdex 30 Increase); not shown: His6, N-terminal, cleaved; protein A, N-terminal, cleaved

Kd [14]: 870 nM
Kd [9]: 0.61 ± 0.1 µM
Kd [15]: 970 ± 130 nM
Kd [16]: 870 nM
B5: RSY region of cold-inducible RNA-binding protein (CIRBP), residues 138-172 (domain or fragment, human, UniProt Q14011 138-172, looked up)
chain: SRDYYSSRSQSGGYSDRSSGGSYRDSYDSYATHNE
notes: Only residues 158-171 were modelled in PDB 8CMK; also called CIRBP^RSY; RSY-NLS; source: E. coli BL21-(DE3) Star, purified (denaturing lysis, Ni-NTA, TEV cleavage, second Ni-NTA, SEC Superdex 30); not shown: His6, N-terminal, cleaved; protein A, N-terminal, cleaved

Reference: publication PMC12075686, “Structural basis of phosphorylation-independent nuclear import of CIRBP by TNPO3” (Nature Communications, 2025)
